Measured values reported in publication PMC10279719 (Nature Communications, 2023).

Molecular target: T1, PEAK1^IDR1 (residues 1082-1746), from insect cells, phosphorylated by Src (human, UniProt Q9H792 1082-1746, phosphotyrosine at Y1107 (by Src in vitro, shown by MS/MS); other Src sites not stated; biotin (EZ-Link NHS-PEG4-Biotin, 1:1 molar ratio))
T1 construct: human PEAK1, UniProt Q9H792, residues 1082-1746; also called PEAK1-IDR1 (+ Src phosphorylation); source: Sf21 insect cells, purified; phosphorylated in vitro with recombinant Src kinase domain
T1 sequence (looked up): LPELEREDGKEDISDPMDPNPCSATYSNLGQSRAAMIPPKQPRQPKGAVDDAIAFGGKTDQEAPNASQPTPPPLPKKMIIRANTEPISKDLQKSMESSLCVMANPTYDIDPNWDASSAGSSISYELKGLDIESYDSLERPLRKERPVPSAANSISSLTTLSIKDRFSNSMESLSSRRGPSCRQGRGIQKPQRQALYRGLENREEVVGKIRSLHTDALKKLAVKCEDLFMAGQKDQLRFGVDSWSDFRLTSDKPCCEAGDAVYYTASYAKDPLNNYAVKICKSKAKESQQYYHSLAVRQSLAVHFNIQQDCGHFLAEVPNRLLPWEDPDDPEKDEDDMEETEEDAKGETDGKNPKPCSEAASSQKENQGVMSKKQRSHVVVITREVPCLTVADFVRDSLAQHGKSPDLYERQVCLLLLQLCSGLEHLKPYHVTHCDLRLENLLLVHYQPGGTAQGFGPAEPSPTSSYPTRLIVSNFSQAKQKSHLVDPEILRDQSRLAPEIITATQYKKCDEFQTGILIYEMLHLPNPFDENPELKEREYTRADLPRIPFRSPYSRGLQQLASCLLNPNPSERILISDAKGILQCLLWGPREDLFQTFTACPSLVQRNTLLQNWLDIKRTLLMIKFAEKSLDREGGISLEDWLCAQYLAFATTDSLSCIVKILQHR
Test: SPR; biotinylated PEAK proteins (with or without Src phosphorylation) captured with a biotin CAPture kit, CrkII NSH3 as analyte; Biacore 8K+, 20 °C, HBS-TP (150 mM NaCl); 1 M NaCl regeneration; steady state
Details: both partners purified

Kd: 4.11 µM
B1: CrkII N-terminal SH3 domain (CrkII^NSH3, residues 134-191) (domain or fragment, human, UniProt P46108-1 134-191, looked up)
chain: AEYVRALFDFNGNDEEDLPFKKGDILRIRDKPEEQWWNAEDSEGKRGMIPVPYVEKYR
notes: human CrkII NSH3 domain, UniProt P46108-1, residues 134-191; Amine coupled to a CM5 chip in a2; analyte in a4; in the syringe in ITC
